Reference: patent publication WO2010028798A1 (dated 2010)

B1: AA-2320 (antibody)
chain 1: EVKLVESGGGLVKPGGSLKLSCAASGFTFSTYAMSWVRQTPEKRLEWVASISTGDNTYYTDSVRGRFTISRDNARNILYLQMSSLRSEDTAMYFCTRGRGDRGDLFGYWGQGTLVTVSS
chain 2: GGGGSGGGGSEVKLVESGGGLVKPGGSLKLSCAASGFTFSTYAMSWVRQTPEKRLEWVASISTGDNTYYTDSVRGRFTISRDNARNILYLQMSSLRSEDTAMYFCTRGRGDRGDLFGYWGQGTLVTVSSGGGGSGGGGSGGGGSDIVMSQSPSSLAVSVGEKVTMSCKSSQSLLYRGNQMNYLAWYQQKPGQSPKLLIYWASTRESGVPDRFTGSGSGTEFTLTISSVKAEDLTVYYCQQYYTYPRTFGGGTKLEIKR
chain 3: DIVMSQSPSSLAVSVGEKVTMSCKSSQSLLYRGNQMNYLAWYQQKPGQSPKLLIYWASTRESGVPDRFTGSGSGTEFTLTISSVKAEDLTVYYCQQYYTYPRTFGGGTKLEIKR
B2: AN-1000 (antibody, V domains shown)
VH: EVKLVESGGGLVKPGGSLKLSCAASGFTFSTYAMSWVRQTPEKRLEWVASISTGDNTYYTDSVRGRFTISRDNARNILYLQMSSLRSEDTAMYFCTRGRGDRGDLFGYWGQGTLVTVSS
VL: DIVMSQSPSSLAVSVGEKVTMSCKSSQSLLYRGNQMNYLAWYQQKPGQSPKLLIYWASTRESGVPDRFTGSGSGTEFTLTISSVKAEDLTVYYCQQYYTYPRTFGGGTKLEIKR

Biological target: human CCR5 (human, UniProt P51681 1-352)
Sequence (P51681 whole entry): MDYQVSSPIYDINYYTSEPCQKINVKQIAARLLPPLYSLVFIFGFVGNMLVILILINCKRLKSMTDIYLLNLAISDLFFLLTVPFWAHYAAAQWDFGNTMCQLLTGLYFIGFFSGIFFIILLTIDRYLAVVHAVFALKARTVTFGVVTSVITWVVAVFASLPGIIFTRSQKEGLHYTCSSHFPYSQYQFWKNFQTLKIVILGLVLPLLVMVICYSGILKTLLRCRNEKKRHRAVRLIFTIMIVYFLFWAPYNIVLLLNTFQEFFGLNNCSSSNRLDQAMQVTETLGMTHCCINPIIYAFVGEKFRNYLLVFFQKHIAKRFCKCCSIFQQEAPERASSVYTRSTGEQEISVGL
Assay: cell-based or functional assay

Binder	IC50, antiviral assay in PBMC (HIV-1 NLBal, p24 ELISA)
B1	0.088 nM
B2	0.988 nM
